Results taken from patent US20210198347A1 (Chugai, published 2021).

Molecular target: T1, recombinant human C1r2s2 Flag/His tetramer (human, UniProt P09871 16-688; P00736 18-705)
T1 construct: whole entries named; also called hc1r2s2; rC1r2s2
T1 chain 1: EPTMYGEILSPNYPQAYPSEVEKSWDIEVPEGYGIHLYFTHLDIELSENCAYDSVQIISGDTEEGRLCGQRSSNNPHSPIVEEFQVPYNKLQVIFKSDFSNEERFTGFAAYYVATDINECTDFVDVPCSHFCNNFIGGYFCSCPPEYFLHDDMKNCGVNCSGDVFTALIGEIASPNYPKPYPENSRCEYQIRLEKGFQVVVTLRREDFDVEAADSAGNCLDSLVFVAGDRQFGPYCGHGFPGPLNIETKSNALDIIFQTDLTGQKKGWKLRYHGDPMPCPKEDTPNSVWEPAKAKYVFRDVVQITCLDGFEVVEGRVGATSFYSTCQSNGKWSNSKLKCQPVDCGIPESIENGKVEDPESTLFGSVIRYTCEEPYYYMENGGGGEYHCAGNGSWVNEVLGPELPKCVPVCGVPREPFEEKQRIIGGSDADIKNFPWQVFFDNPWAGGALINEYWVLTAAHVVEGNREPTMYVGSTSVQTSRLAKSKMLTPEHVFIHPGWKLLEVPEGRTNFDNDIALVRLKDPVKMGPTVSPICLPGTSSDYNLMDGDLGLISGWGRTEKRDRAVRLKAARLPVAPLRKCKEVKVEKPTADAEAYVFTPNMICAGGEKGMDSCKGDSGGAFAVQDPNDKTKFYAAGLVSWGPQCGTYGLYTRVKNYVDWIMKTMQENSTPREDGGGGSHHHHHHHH
T1 chain 2: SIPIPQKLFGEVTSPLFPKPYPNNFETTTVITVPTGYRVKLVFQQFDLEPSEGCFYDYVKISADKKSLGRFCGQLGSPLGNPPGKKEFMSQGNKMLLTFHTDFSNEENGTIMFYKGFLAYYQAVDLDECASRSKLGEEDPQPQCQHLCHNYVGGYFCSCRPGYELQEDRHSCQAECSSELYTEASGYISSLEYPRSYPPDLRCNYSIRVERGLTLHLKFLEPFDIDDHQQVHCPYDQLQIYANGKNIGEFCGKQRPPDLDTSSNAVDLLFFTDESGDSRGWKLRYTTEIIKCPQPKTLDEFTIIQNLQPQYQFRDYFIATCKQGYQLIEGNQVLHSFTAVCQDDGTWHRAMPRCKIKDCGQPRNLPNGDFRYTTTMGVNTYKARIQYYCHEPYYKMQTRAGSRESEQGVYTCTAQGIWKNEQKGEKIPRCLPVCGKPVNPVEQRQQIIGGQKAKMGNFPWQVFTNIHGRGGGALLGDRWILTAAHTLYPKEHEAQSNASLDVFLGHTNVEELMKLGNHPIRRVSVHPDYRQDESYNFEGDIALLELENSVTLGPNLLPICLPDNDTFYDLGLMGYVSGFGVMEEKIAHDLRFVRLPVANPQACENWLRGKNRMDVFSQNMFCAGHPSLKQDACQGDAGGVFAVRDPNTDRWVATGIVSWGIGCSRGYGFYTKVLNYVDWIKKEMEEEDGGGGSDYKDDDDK
Assay: SPR displacement (37 degrees C, pH 7.4): C1r2s2 captured by anti-His, C1q 100 nM pre-bound, antibody 500 nM at 10 micro L/min; time from antibody injection until the antibody sensorgram falls below the buffer sensorgram; competitor native human C1q
Method: An anti-His antibody (GE-Healthcare) was immobilized onto all flow cells of a CM4 sensor chip using an amine coupling kit (GE Healthcare). The antibodies, recombinant human C1r2s2 Flag/His tetramer and native human C1q (Comptech A099) were prepared in pH 7.4 buffer (20 mM ACES, 150 mM NaCl, 1.2 mM CaCl₂, 1 mg/mL BSA (IgG-free), 1 mg/mL CMD, 0.05% Tween 20, 0.005% NaN₃, pH 7.4). Recombinant human C1r2s2 Flag/His tetramer was first captured onto the sensor surface by the anti-His antibody (“hc1r2s2” in FIG. 2A). The capture levels were aimed at 200 resonance unit (RU). Native human C1q was injected at 100 nM to have a capture of 200 RU (“hc1q” in FIG. 2A), followed by antibody injection at 500 nM at 10 micro L/min for 1200 sec immediately. The sensor surface was regenerated each cycle with 10 mM Glycine-HCl (pH 1.5). For the antibodies with the C1q displacement function, the response unit of Sensorgram 2 (large dotted line; “C1r2s2+C1q+Ab” in FIGS. 2A and 2C) is lower than the response unit in Sensorgram 1 (small dotted line; “C1r2s2+C1q+buffer” in FIGS. 2A and 2C) after the time point where Sensorgrams 1 and 2 cross (“time point of crossover”). Depending on the time when Sensorgram 2 crosses over Sensorgram 1, COS0499 was categorized as a fast displacement variant. […] COS0448 was in the middle of fast displacement and slow displacement.
The time point of crossover is identified by subtraction of the buffer response (Sensorgram 1) from the antibody (Ab) response (Sensorgram 2), and referring to the time point when the differential value changes from positive to negative (Table 4). The time from the start of Ab injection is indicated in Table 4 as “time point of crossover”.

Binder | Time point of crossover (post-injection)
COS0637cc-SG1148 (antibody, human IgG1, kappa, V domains shown) VH: QSLEESGGRLVTPGTPLTLTCTASGFSLSAYAMNWVRQAPGKGLEWIGLIYGSGSTFYASWAKGRFTISKTSTTVDLKMTSLTTEDTATYFCARGRSVNYNSDFKLWGPGTLVTVSS VL: QVLTQTPSSVSAAVGGTVTINCQASQSLHDKKNLAWYQHKPGQRPNLLIYGASTLESGVPSRFKGSGSGTEYTLTISDLECDDAAAYYCQGEFSCSSADCNTFGGGTKVEIKR | 764 s
COS0499ee-SG1148 (antibody, human IgG1, kappa, V domains shown, also called COS499; COS499ee(-SG1148)) VH: QSLEESGGRLVTPGTPLTLTCTASGFSLSNYNMAWVRQAPGKGLEWIGIIETTTNTYYARWARGRFTISKTSSTTVDLQIASPTTEDTATYFCGRRVSNSHDLWGPGTLVTVSS VL: AYDMTQTPASVSAAVGGTVTINCQASQTIGGWCAWYQQKPGQPPKLLIYKASTLASGVSSRFKGSGSGTEFALTISDLECDDAATYYCQHGYYTSSTIENTFGGGTKVEIKR | 61.9 s
COS0448oo-SG1148 (antibody, human IgG1, kappa, V domains shown, Rabbit B-cell derived variable regions; also called COS448; COS44800(-SG1148)) VH: QSVEESGGRLVTPGTPLTLTCTVSGFSLSNYGMIWVRQAPGEGLEYIGFVSGSGSAYYANWVKGRFTISKTSTTVDLKMTSLTTEDTATYFCARGAYNTDSYSYSLYYGMDLWGPGTLVTVSS VL: QIVMTQTPASVEVAVGGTVTIKCQASQSIYSYLSWYQQKPGQPPKLLIYGASTLASGVPSRFKGSRSGTEFTLTISDLECADAATYYCQSNYATTTTYGTFGGGTKVEIKR | 169 s
COS0547gg-SG1148 (antibody, human IgG1, kappa, V domains shown) VH: QSLEESGGRLVTPGTPLTLTCTASGFSLSSYHMDWVRQAPGKGLEWIGIITYTGDTYYATWAKGRFTISKTSSTTVDLKMASLTTEDTATYFCARRQYDAYNVWGPGTLVTVSS VL: AYDMTQTPASVEVAVGGTVTIKCQASQSINNYLAWYQQKPGQPPKLLIYYASTLASGVPSRFKGSRSGTEFTLTISGVECADAATYYCQHGYYTSSNIDSVFGGGTKVEIKR | 542 s
COS0631gg-SG1148 (antibody, human IgG1, kappa, V domains shown) VH: QSVEESGGRLVTPGTPLTLTCTVSGFSLSRYSMGWVRQAPGKGLEWIGIIYADGGAYYASWAKGRFTISKTSTTMDLKVTSPTTEDTATYFCARGQFINSNEFFNPWGPGTLVTVSS VL: QVLTQTASSVSAVVGGTVTINCQASQSLHNNKNLAWYQQKPGQPPRLLIYYASTLASGVSSRFKGSGSGTQFTLTISDLECDDAATYYCAGEFSCSNGDCNAFGGGTKVEIKR | 736 s
